Where “and” joins values, the source holds several entries; their conditions need not be identical. Identical values can stand only once.
Assays:
[1] = biological target: soluble Tau in control human brain lysate (human) (UniProt P10636); assay: ELISA on coated brain lysate, antibody 5 nM
[2] = biological target: soluble Tau in Alzheimer's disease human brain lysate (human) (UniProt P10636); assay: ELISA on coated brain lysate, antibody 5 nM
[3] = biological target: soluble Tau in control human brain lysate (human) (UniProt P10636); assay: ELISA on coated brain lysate, antibody 0.5 nM
[4] = biological target: soluble Tau in Alzheimer's disease human brain lysate (human) (UniProt P10636); assay: ELISA on coated brain lysate, antibody 0.5 nM

Chain of soluble Tau in control human brain lysate (human) (P10636 other isoform, or with tags, fused parts or gaps limits assumed): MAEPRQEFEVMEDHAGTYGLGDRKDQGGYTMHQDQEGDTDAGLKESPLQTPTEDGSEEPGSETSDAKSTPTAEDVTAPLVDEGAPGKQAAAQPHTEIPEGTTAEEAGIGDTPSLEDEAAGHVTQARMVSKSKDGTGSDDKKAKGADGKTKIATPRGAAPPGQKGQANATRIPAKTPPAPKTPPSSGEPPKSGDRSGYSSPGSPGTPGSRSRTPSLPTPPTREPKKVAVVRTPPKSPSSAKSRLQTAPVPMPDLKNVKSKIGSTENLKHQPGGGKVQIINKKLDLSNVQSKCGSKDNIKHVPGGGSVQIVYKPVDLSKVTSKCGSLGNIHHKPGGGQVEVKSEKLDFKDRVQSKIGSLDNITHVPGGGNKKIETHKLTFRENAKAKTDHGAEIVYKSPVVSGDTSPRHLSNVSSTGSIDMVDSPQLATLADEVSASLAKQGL
Chain of soluble Tau in Alzheimer's disease human brain lysate (human) (P10636 other isoform, or with tags, fused parts or gaps limits assumed): as above

ELISA signal [1]: 0.151 and 0.107 and 0.11
ELISA signal [2]: 0.108 and 0.107 and 0.117
ELISA signal [3]: 0.147 and 0.106 and 0.108
ELISA signal [4]: 0.108 and 0.117 and 0.115
Substance: anti-RSV antibody (negative control)
